Target: T1, Biotinylated human β-glucocerebrosidase (residues 40A-536R) (human)
T1 sequence (P04062 whole entry, looked up): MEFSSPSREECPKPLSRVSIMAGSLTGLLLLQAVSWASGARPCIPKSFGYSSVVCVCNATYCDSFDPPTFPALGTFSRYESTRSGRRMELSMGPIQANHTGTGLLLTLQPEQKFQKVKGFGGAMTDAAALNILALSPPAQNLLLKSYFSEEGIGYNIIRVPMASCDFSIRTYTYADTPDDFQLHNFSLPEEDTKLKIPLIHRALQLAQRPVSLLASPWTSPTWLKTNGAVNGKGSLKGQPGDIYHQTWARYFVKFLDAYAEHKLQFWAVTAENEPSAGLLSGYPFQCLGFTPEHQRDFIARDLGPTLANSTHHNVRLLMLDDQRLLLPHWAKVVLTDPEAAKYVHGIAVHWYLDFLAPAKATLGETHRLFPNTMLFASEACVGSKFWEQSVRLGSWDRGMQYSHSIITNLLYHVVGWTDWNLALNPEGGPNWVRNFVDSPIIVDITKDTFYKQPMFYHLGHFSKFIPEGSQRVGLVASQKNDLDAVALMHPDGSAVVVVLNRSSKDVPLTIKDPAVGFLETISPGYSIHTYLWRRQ
Experiment: SPR; equilibrium binding; about 1,000 RU of biotinylated ligand on a streptavidin-coupled CM5 chip, LIMP-2 as analyte; Biacore T100, 25 °C, 10 mM HEPES pH 7.5, 150 mM NaCl, 0.005% Tween 20; one-site saturation binding model

- Kd: 1400 nM
B1: Human LIMP-2 luminal domain (residues 28-431) produced from HEK293S (GnTI-) cells, with limited glycosylation (domain or fragment)
chain: VFQKAVDQSIEKKIVLRNGTEAFDSWEKPPLPVYTQFYFFNVTNPEEILRGETPRVEEVGPYTYRELRNKANIQFGDNGTTISAVSNKAYVFERDQSVGDPKIDLIRTLNIPVLTVIEWSQVHFLREIIEAMLKAYQQKLFVTHTVDELLWGYKDEILSLIHVFRPDISPYFGLFYEKNGTNDGDYVFLTGEDSYLNFTKIVEWNGKTSLDWWITDKCNMINGTDGDSFHPLITKDEVLYVFPSDFCRSVYITFSDYESVQGLPAFRYKVPAEILANTSDNAGFCIPEGNCLGSGVLNVSICKNGAPIIMSFPHFYQADERFVSAIEGMHPNQEDHETFVDINPLTGIILKAAKRFQINIYVKKLDDFVETGDIRTMVFPVMYLNESVHIDKETASRLKSMINT
modifications: N-linked P-Man9GlcNAc2 (with terminal mannose 6-phosphate) at N325; sugars on all nine N-linked glycosylation sites, limited processing

— PMC4104448
